Test results reported in US20040197862A1.

Target: HLA-DR1 (DRA, DRB1*0101), soluble, thrombin-cleaved DR/CLIP complex (human)

| Substance | IC50 [µM] |
| --- | --- |
| HIV p24 (191-212) peptide | 1.6 |

Target: HLA-DR2b (DRA, DRB1*1501), soluble, thrombin-cleaved DR/CLIP complex (human)

| Substance | IC50 [µM] |
| --- | --- |
| HIV p24 (111-132) peptide | 10.8 |
| HIV p24 (191-212) peptide | 3 |
| HIV p24 (161-182) peptide | 9 |
| HIV p24 (51-72) peptide | 10.8 |
| HIV p24 (1-22) peptide | 8 |
| HIV p24 (171-192) peptide | 0.9 |
